The supplement of paper PMC9170038

Test system: K4 kissing-loop RNA reporter
Assay: apparent KD of K4 kissing-loop reporter; higher = weaker reporter binding
Details: Eterna round: R107
Method: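 RNA-MaP round R107: designed RNA switches with theophylline, tryptophan, arginine or FMN aptamers are transcribed on-chip within common flanks. They are titrated with a labelled K4 kissing-loop RNA reporter in RNA-MaP buffer (100 mM Tris pH 7.5, 80 mM KCl, 4 mM MgCl2), without ligand or with the indicated ligand. Median apparent KD per design.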

[1] = input ligand: theophylline 20 uM
[2] = input ligand: tryptophan 2.4 mM
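Further: bound reporter read as fluorescence of individual clusters on recovered sequencing chips by microscopy, with normalized cluster intensities fitted with a binding model.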

Sequence	apparent KD of K4 kissing-loop reporter (input ligand: FMN 200 uM) [µM]	apparent KD of K4 kissing-loop reporter (input ligand: arginine 13.2 mM) [µM]	apparent KD of K4 kissing-loop reporter (input ligand: none) [µM]	apparent KD of K4 kissing-loop reporter [1] [µM]	apparent KD of K4 kissing-loop reporter [2] [µM]
GGAUAGGAUAGAGGAUAUGGAAAACACAAAAGUGACUUGUUGUGUUUAUCCAUAGGGAGUGAUGUUCCAGAAGGCUGUCCUAUCG [MatMod 23 - Jieux - Exclusion - FMN B]	0.229	0.169	0.169	0.164	0.136
AGCAGUCACUCGAAAACCAUCGAAGAUGGACGAGGACCGGUACGGCCGCCACUCGGAGUGAUGUUCCGAAGACUGCAAAAUAAAA [#SwitchBubble 16]	0.38	0.402	0.433	0.346	0.435
GGAGGAGAAUAUGAUACCAGCAGAGAGAGAGAGGAAGUAUAGUGAUGUUAUAUGAGAGAAUGCCCUUGGCAGCAUAAGACGCAGG [#07 K4 Theophylline B Same State]	0.194	0.114	0.11	0.144	0.0947
CCAGGACGAUGAGGAGGAUGAAUUACUGAAGGAGCGCAUAUGGUUGCAGGUAGGUCGCGGUGAACAAGUAUAGUGAUGUUAUAUC [SSArgA.S]	0.365	0.971	0.538	0.321	0.321
GCUAAGUGAUGUUUAUGCCGCCGACCGGAUACCAGCUACUAGGCAAGCCCUUGGCAGCCGCUAUGUGACCGAUCAUUAGUUAUGU [theeternabot_exclusion_KL_Theo_A_6]	0.857	0.734	0.913	0.79	0.682
AGAUGUUUAGCUCAAAGAACGAAAAUGGAAGGAGCGUGCGAAAGCACAGGUAGGUCGCCAGUGAUGUUGGAACCUGAGCAUCAAA [#SwitchBubble 16 #K4Late]	0.316	0.274	0.262	0.244	0.23
UCCUGCAAUCCACCACGAAAGUGGAUGGAUACCAGAGUCGAAAGACUCCCUUGGCAGCCAGUGAUGUUGGAGCAGGUAAAAUAAA	0.526	0.532	0.63	0.402	0.473
UGCUUUAUCAGAAGGAGCGCGUAAGUUAUACUAAUAAUCAGUGAUGUUGAUAUAUGAUCUUUGCAGGUAGGUCGCUGAUAUAGCU [KL-XARG-B4]	0.452	0.419	0.532	0.467	0.472
AAGCGUAAAAUGGCGGACAUACUGCUCCCACGAGGACCGGUACGGCCGCCACUCGAGUGCGGCAGUGAUGUUGCCGCCUUAGCGU [KL-XTryp-A20]	0.0929	0.0813	0.092	0.0803	0.0819
CCUUGGAUUAGCUGUACUUUUCUACGGGAUACCAGUGCGUAACACCACCCUUGGCAGCCCGAUUACCGGCAGUGAUGUUGCCUCU [theeternabot_sameState_KL_Theo_A_41]	0.185	0.282	0.244	0.245	0.192
AAUUUAGUGACGGCCGCCACUAGGGUGAUUUAUUUGUUUGAGUGAUGUUUUGAUGUUUGAUUUUGUAGGACCGGGUUAGGUGAUG [dddcmullin]	0.354	0.304	0.363	0.326	0.271
CCUAUCUCGUACGAUACCAGUCAAUGAUCUUUGAUCAAUGCCAUCACCGAGUGAUGUUCGGACCCUUGGCAGCGUAUGAGAUGGG [whbob_Ex_Theo_B_sa105]	0.272	0.207	0.251	0.386	0.242
CAUAGGAAACUAUGUAUCUCUCUUACUGAAGGAGCGCGUGAAAACGCAGGUAGGUCGCAGAAUUUAAAAGAGAGUGAUGUUCUCU [Ex Arginine A K4 8]	0.358	0.253	0.332	0.247	0.301
CUCGUGGGUUUGAGAGGGUUUGUGGGAAGUGAGGAUAUUUAGGGAGAAAGAAGGCACUAUAAAAUAUAGUGAUGUUAUAUAAGGG [SSFMNA.L]	0.277	0.141	0.325	0.194	0.198
CCGUGGAGUGAUGUUCCACGUUCUACGGAUACCAGCUUUGCCAAAGGCCCUUGGCAGCCGCACCUUGCAGUGAUGUUGUGAGGCU [Same State Theophylline A Gf7]	0.329	0.268	0.305	0.302	0.274
AUUCGUUUUUGUGAUACCAGACAUGUGAGUGAUGUUUACAUAUAUAUUUAAUAUUUAGCUGUCCCUUGGCAGCACUGUUUAUUUA [JR_ExcTheophyB_Sub003]	0.343	0.384	0.393	0.444	0.291
CCUAUCUCUUACGAUACCAGUCAAUGAUAUUUUAUCAAUGCCCUCACCGAGUGAUGUUCGGACCCUUGGCAGCGUAUGGGAUAGG [kjnjmullin]	0.241	0.162	0.212	0.175	0.188
UCGAAGGAUGGAAGGAGCGCUCGUCAGUCCUGCGAGUGAUGUUCGUGGGUAAAUAGUCGCGAGCAGGUAGGUCGCCAUCUUGAGC [Laxe]	0.139	0.102	0.114	0.126	0.109
AGUGCUAUGACGGCCGCCACUGAUUACCAGUGAUGUUGGUAGUCCAUUUACGACUUCCUGAUAACCAGGACCGGGUCAUAGGUCG [Tryp B Ex t2]	0.702	0.613	0.807	0.45	0.201
CUUAUGGCGUUUGGAAGGAGCGGCUCAUCACGAGGACCGGUACGGCCGCCACUCGAGAGAGCAUAAGAAAGUGAUGUUUUCGGUU [theeternabot_sameState_KL_Trp_A_44]	0.517	0.415	0.496	0.395	0.314
UUAUCAUCAGCGGCCGCCACUGCAAAUUGGAGUGAUGUUCCAAGCGUGGAUAAUGAAAUCACUAGUAGGACCGGGUUGAUGAAUU [AK 1 Ex Trypt B]	0.309	0.231	0.27	0.254	0.306
UUUAUAUUGUCGGCCGCCACUGGAUCAAUAUUUGUAUGAUCUAGUUCAAAGUGAUGUUUUGAGUCCAGGACCGGGACAUUUGUUA [JR_ExcTryptoB_Sub005]	0.708	0.558	0.669	0.558	0.917

Sequence	apparent KD of K4 kissing-loop reporter (input ligand: FMN 200 uM) [µM]	apparent KD of K4 kissing-loop reporter (input ligand: arginine 13.2 mM) [µM]	apparent KD of K4 kissing-loop reporter (input ligand: none) [µM]	apparent KD of K4 kissing-loop reporter [1] [µM]	apparent KD of K4 kissing-loop reporter [2] [µM]
AAGUGAUGUUGUAGUGAUGUUGUGAUGUUGCAGGAUAUAUAGUGAUGUAGAAGGGUAAGUACUGAUGUUGUUAGUGAGUGAUGUU [wwzrrmullin]	0.111	0.0498	0.0879	0.0811	0.0866
UGGCGACUGCCAGUGAUGUUGGCCGUCGUACGAGGACCGGUACGGCCGCCACUCGUCCUGGUUUAGGCUCCGCCUUCACAUCAGG [Beterire]	0.401	0.326	0.393	0.784	0.309
AUUUAGACGAGUGAUGUUCGUGAUAUUACAGAGGAUAUGCUUAAAAGCAGAAGGCUGUAUUUAUAUUUGUUAUGUAAUUUUAAAA [JR_ExcFMNA_Sub005]	0.0799	0.0954	0.078	0.0955	0.0627
AGACUACCACACUGUCAAUAGACAGUGAACUAGGAUAUGCUGAUAAGCAGAAGGAGUGAUGUUCCUAAAGGUAGUCAAAUAUAAU [FmnAX 14 #SwitchBubble #StaticStem #K4Early]	0.335	0.38	0.38	0.567	0.351
CACGAUGAAUUCUCUAGGAGUGAUGUUUUUCGAGGACCGGUACGGCCGCCACUCGGACGACGAGUGUGGUAGCGGGCUGAAGACU [zgullin]	0.429	0.262	0.643	0.239	0.561
AGACUUCACCGAAGGAGCGACGUAGCCUAGUGAUGUUAGGCAAGAGAGAAAUCUCUUAUACGUCAGGUAGGUCGCGGUGAAGUCA [Omei KL Arginine B SS C v2]	0.197	0.118	0.162	0.16	0.15
GUAGGAUGAGGAGGAGGAUGAAUUACUGAAGGAGCGCAAAGAAAUGCAGGUAGGUCGCGGUAAAGAAGUAUAGUGAUGUUAUAUC [#08 K4 Arginine A Same State]	0.588	0.416	0.463	0.7	0.598
UAUUAAUUGUCAGGAUAUCGUAUUCGAGUGAUGUUCGUAUAUCGACGAUAGUCGAUUCUAUCUAUACGAGAAGGGACAUUAUUUA [JR_SSFMNB_Sub007]	0.801	0.711	1.09	0.804	0.755
UGUGAACAAAAGUAGAGUGGACCACUAUAGCGAGGACCGGUACGGCCGCCACUCGUACAUGAAUUCAGUGAUGUUGAAAUGAGCU [whbob_EX_Tryp_A_t14]	0.234	0.36	0.334	0.426	0.213
UGAUACCAGGCGGCCGCCACUCCUGCAGGUCAAAGACCUGUGAAGCUGGUUCUCCAGUGAUGUUGGAGGACCGGGCCUGGUAUCU [FiskerMod 27 - Jieux - Exclusion - Tryptophan B]	0.202	0.176	0.185	0.179	0.356
GGAUCUUCCAGUGAUGUUGGUUAAUAUAUCAAGGAUAUGACGAAAGUCAGAAGGUGAAAGACUGGACAAAGUCCAGUCGGAUCCA [KL-SSFMN-A19]	0.444	0.573	0.599	0.444	0.43
AAUAAGGUCGCCGAUACCAGCGCGGGCAGAGCAAAGCUCUGCCCGGCAGUGAUGUUGCCGCGCCCUUGGCAGCGGUGGCACGACC [Omei KL Theo B SS C v7]	0.166	0.0484	0.0472	0.216	0.0558
UGAUAGGACAGAAGGAGCGGGAGUGAUGUUCCCAAAAGGAUAAGGUGUCAAAAGACACCCUCCCAGGUAGGUCGCUGUCCUAUCU	0.577	0.311	0.663	0.532	0.544
AUGACGGGUAGUGAUGUUAUCCACGAUGGGAAGGAUAUCAACCGUGUGAGAAGGUCCUUAUCGGUGCGGCACAUGCAGGUACUAC [theeternabot_sameState_KL_FMN_A_41]	0.215	0.264	0.346	0.452	0.268
AGACUACCACACUGUCAAUAGACAGUGAGCUAGGAUAUGCUGAUAAGCAGAAGGAGUGAUGUUCCCAGGUAGUCAAUAAAAUAAU [FmnAX 13 G29+C66]	0.272	0.192	0.231	0.302	0.238
UGCAGUGAUGUUGCGAGUGGCAGAUACGAAGGAGCGUGGUGAGACACAGGUAGGUCGCGUAUUGAAAUUGCUGUCACUAAAAUGC [#7]	0.448	0.469	0.505	0.483	0.362
UUGGACCUUAGCCUCAAUAGAACUUUGUUACGAGGACCGGUACGGCCGCCACUCGUCGGGCUCCGAUAGCCAGUGAUGUUGGCAA [theeternabot_sameState_KL_Trp_A_16]	0.429	0.405	0.693	1.01	0.212
UUGAGCCUGACGGAAGUCAGGCUCUGCGAGCGAGGACCGGUACGGCCGCCACUCGGUGCAGUGAUGUUGCAUGGCCGCAAGGCCG [#2 Exclusion - Tryptophan A Attempt #16 (HarryS)]	0.311	0.29	0.352	0.311	0.42
GAAUUAUGUAGAAGGAGCGUCAGAAGGUAUAGGUGCGAGUGAUGUUUGGACCUGUUAAUUUGACAGGUAGGUCGCUACAGAAGGA [KL-SSArg B20 #analogue]	0.533	0.291	0.448	0.304	0.32
AAGAGAUAGGGAGGAUAUGCCCUAUUGAGAACCGAGUGAUGUUCGGUAGGACAAAUAGUCCACAGGGUAGAAGGCCCACAUCACA [SS FNM B Tesla 2]	0.191	0.213	0.244	0.476	0.267
CAUCUGGACCAAGGAUAUGUGGGCAUAAUAAAAUUACCACCUUAUUUGCAGUAAGUGAUGUUUAACACAGAAGGUGGACAUAGAC [theeternabot_exclusion_KL_FMN_B_10]	1.17	0.725	1.17	0.701	0.822
